The DeepSol protein solubility set

Test: soluble on expression in E. coli; label from the status in PepcDB or PDB records

Row | Sequence | soluble on expression in E. coli
1 | MSKNCKSCKDLKNRGIDVDCCFEIGDKECASLGDDKGFNGKKNDCQDMHDLNDCLLGRADSALDIHDDCDWKGYLKKLVSTLYNLQKMTICAICGIWKKIHWIEEQIEKIWKKIAKMEDDIDNIASQNWEINTRYGIQESTKGMSVSINRGNGDFIFRWKDWGDAEQTQYLGEGEIRGTVNFGMRPSSNASFDWQVRDVVIQNLSYKTNNIRSVPFTLHLYLTRAGEQEIYTKSHDTTKSFNDNINKTLKLNNNGNVGISSSSGWLQFLEFFNDGPVADDRANLQIEFKNNGKPKPPRYI | not soluble
2 | MSKNIKTPTNQKVLTNVAVVRMKKTGKRFEIACYKNKVVNWRNKSEKDIDEVLQTHTVFSNVSKGQLSKKEELIAAFGIEDQLEICKIILDKGDLQVSEKERQAASDQSLKEVSQLIASMVVNPETKRPVPPSVIDKALQEMHFSLKPNRSSKQQALDAIPKLRETLKIERAKMKIRVAIPTKEAKSVHTKLKTLFSDVEVDDWQDGSLEMVGLIEPGSFRALDDLVRNETKGHGRLEILSLKDVVEGELQIS | soluble
3 | MSKNVGKLVKIWNESEVLVDRKSKFQARCCPLQNQKDIPSILQELTQNNKSVSKASHMHMYAWRTAEVSNNLHLQQEQKKKGNKANKSNNSHVNKSRNITVQPKNIEQGCADCGEAGAGQRLLTLLERANIFNVLVIVTRWYGGTPLGSSRFRHISTCAVETLKKGGFLP | soluble
4 | MSKRNTQQRRHNIIADLNAQGEVSVDSLAKQFDTSEVTIRKDLAALETSGLLLRRYGGAVALPSEITEAKVDQLSQQKLHIAKKAAMLIRDHNRIIIDSGQTTSALVSELANKKGLVVMTNALSIANEIHALENEPTLLMTGGTWDATSEAFQGQVAEQVLRSYDFDQLFIGADGIDIKRGTTTFNELIGLSRVMAEVAREVIVMVESAKITKKIPNLELNWQQIHTVITDDGLSEEMRIALTEQGVKLIIAKGLEHHHHHH | soluble
5 | MSKRRVVVTGMGMLSPVGNTVESSWKALLAGQSGIVNIEHFDTTNFSTRFAGLVKGFDCEQYMSKKDARKMDLFIQYGIAAGIQALEDSGLEVNEENAARIGVAIGSGIGGLELIETGHQALIEKGPRKVSPFFVPSTIVNMIAGNLSIMRGLRGPNIAISTACTTGLHNIGHAARMIAYGDADAMVAGGAEKASTPLGMAGFGAAKALSTRNDEPQKASRPWDKDRDGFVLGDGAGIMVLEEYEHAKARGAKIYAEVVGFGMSGDAYHMTSPSEDGSGGALAMEAAMRDAGVTGEQIGYVNAHGTSTPAGDVAEVKGIKRALGEAGTKQVLVSSTKSMTGHLLGAAGSVEAIITVMSLVDQMVPPTINLDNPEEGLGVDLVPHVARKVESMEYAMCNSFGFGGTNGSLIFKRM | not soluble
6 | MSKSVSIPQALSDLKRTSLRRLSSARGVGNKKTVVSTSTPLSGFVILVEREEKVVRLYGTAAERAGLSIGDEIVGVNDMKIEGKSYEEVTTYIQECIRRKIIQLKVRRRALEIPAENEASVFNCTNSNRMITDAYLVSVDKDHIKEVTKRLKK | not soluble
7 | MSKTVLILGAGVGGLTTADTLRQLLPPEDRIILVDRSFDGTLGLSLLWVLRGWRRPDDVRVRPTAASLPGVEMVTATVAHIDIAAQVVHTDNSVIGYDALVIALGAALNTDAVPGLSDALDADVAGQFYTLDGAAELRAKVEALEHGRIAVAIAGVPFKCPAAPFEAAFLIAAQLGDRYATGTVQIDTFTPDPLPMPVAGPEVGEALVSMLKDHGVGFHPRKALARVDEAARTMHFGDGTSEPFDLLAVVPPHVPSAAARSAGLSESGWIPVDPRTLSTSADNVWAIGDATVLTLPNGKPLPKAAVFAEAQAAVVAHGVARHLGYDVAERHFTGTGACYVETGDHQAAKGDGDFFAPSAPSVTLYPPSREFHEEKVAQELAWLTRWKTLEHHHHHH | not soluble
8 | MSKVNEITRESWILSTFPEWGTWLNEEIEQTVVEPNTFSMWWLGCTGIWLKSAGNTNLSIDFWCGTGKKTQKNRLMNTQHQMMRMGGVEALQPNLRTSIFPLDPFAIKEIDAVLASHDHADHIDVNVAAAVLQNCGEHVKFIGPQACVDLWLGWGVPQERCIVAKVGDVLEIGDVKIRVLDSFDRTALVTLPKGVSSYDKAILDGMDERAVNYLIETSGGSVYHSGDSHYSNYYAKHGNDYQIDVALLSYGENPRGVTDKMTSSDVLRAAESLDCQVVVPFHHDIWANFQNDPREIEVLWNMKKDRLQYQFAPFFWQVGGKYTYPTDKGRMHYQHFRGFQDIFKNEPELPYKAFL | soluble
